Experimental data reported in patent US7838288B2, “Modulators of odorant receptors” (Duke University, priority 2004, dated 2010).

Experiments:
Format in all cases: cell-based, mouse
olfr62 = assay: Living-cell staining of cell-surface olfr62; settings: accessory protein co-transfected in 293T cells
Protocol: The proteins encoded by these clones were named REEP1, for Receptor Expression Enhancing Protein 1 and RTP1, for Receptor Transporting Protein 1. Subsequently, RTP2 was found, a close relative of RTP1. […] Next, REEP1, RTP1, and RTP2 were tested to detect a similar effect in promoting cell-surface expression of other ORs. Four different ORs (mouse OREG, mouse olfr62, mouse OR-S46 and rat I7) were expressed in 293T cells with or without REEP1, RTP1, or RTP2. […] Additionally, ORs transfected with REEP and/or RTP generated more immunofluorescent cells and stronger signals in positive cells compared with ORs without REEP and/or RTP (see FIG. 2A). The signal intensity and the number of immunopositive cells varied when using different ORs at each condition. […] Nonetheless, occasional immunopositive cells were observed only when the accessory proteins were co-expressed. The effects of RTP1 or RTP2 were consistently more robust than that of REEP1. The enhancement of cell-surface expression was specific for ORs and not for other GPCRs: neither REEP and/or RTP enhanced expression of the β2 adrenergic receptor, mT2R5 (a mouse bitter taste receptor) (see, e.g., Chandrashekar, J., et al. (2000) Cell 100, 703-711; herein incorporated by reference in its entirety), or a V2R pheromone receptor (VR4) (see, e.g., Matsunami, H., and Buck, L. B. (1997) Cell 90, 775-784; herein incorporated by reference in its entirety) (see FIG. 2A and FIG. 3). Finally, enhancement of cell-surface expression of MOR203-1 was not observed when other members of the REEP and RTP families (REEP2 and RTP4) were co-expressed.
(§1) 293T cells were maintained in minimal essential medium containing 10% fetal bovine serum (M10). Lipofectamine 2000 (Invitrogen) was used for transfection. In live-cell staining, 16 hours after transfection, cells were incubated in M10 containing anti rhodopsin antibody, 4D2 (see, e.g., Laird, D. W., and Molday, R. S. (1988) Invest Opthalmol V is Sci 29, 419-428; herein incorporated by reference in its entirety) and 15 mM NaN3 at 4 degrees C. for 1 hour. After washing, cells were incubated with Cy3-conjugated anti mouse IgG (Jackson Immunologicals), washed and mounted. For FACS analysis, 4D2 and PE-conjugated anti mouse IgG (Jackson Immunologicals) were used to monitor the Rho tagged receptor expression. Anti HA rabbit antibodies (Sigma) and Alexa 488 conjugated anti rabbit IgG (Molecular Probes) was used to stain the HA-β2 adrenergic receptor. To establish the Hana3a cells, 1 ug/ml of puromycin was used for selection. 96 colonies were picked and assayed using luciferase assay using OREG.

S6 = assay: Living-cell staining of cell-surface S6; settings: accessory protein co-transfected in 293T cells
Protocol: as §1

OREG = assay: Living-cell staining of cell-surface OREG; settings: accessory protein co-transfected in 293T cells
Protocol: The proteins encoded by these clones were named REEP1, for Receptor Expression Enhancing Protein 1 and RTP1, for Receptor Transporting Protein 1. Subsequently, RTP2 was found, a close relative of RTP1. […] Next, REEP1, RTP1, and RTP2 were tested to detect a similar effect in promoting cell-surface expression of other ORs. Four different ORs (mouse OREG, mouse olfr62, mouse OR-S46 and rat I7) were expressed in 293T cells with or without REEP1, RTP1, or RTP2. […] Additionally, ORs transfected with REEP and/or RTP generated more immunofluorescent cells and stronger signals in positive cells compared with ORs without REEP and/or RTP (see FIG. 2A). The signal intensity and the number of immunopositive cells varied when using different ORs at each condition. […] Nonetheless, occasional immunopositive cells were observed only when the accessory proteins were co-expressed. The effects of RTP1 or RTP2 were consistently more robust than that of REEP1. […]

OR-S6/S79 = assay: CRE-luciferase reporter gene assay, OR-S6/S79; settings: 293T cells expressing RTP1 variant
Protocol: Four ORs (S6/79, S18, S46 and S50) previously assayed using other techniques (see, e.g., Malnic, B., et al. (1999) Cell 96, 713-723; herein incorporated by reference in its entirety) were tested against an assay panel of aliphatic alcohols, aldehydes and acids and some other odorants. Additionally, five “orphan” class I ORs (MOR23-1, MOR31-4, MOR31-6, MOR32-5 and MOR32-11) whose cognate ligands were unknown were tested. At a suprathreshold concentration of 100 uM, all these ORs were odorant selective, responding to only a small subset of the odorants tested (see FIG. 11A). This specificity was retained at lower, more physiologically relevant concentrations. Many of these ORs responded to odorants present in micromolar concentrations. The cell-surface expression of these ORs by living-cell immunofluorescence were evaluated. Some ORs (S18, MOR31-4, MOR31-6 and MOR32-5) were strongly expressed while other ORs (S6, S50, MOR23-1, MOR32-11) were weakly expressed (see FIG. 12). The present invention is not limited to a particular mechanism. Indeed, an understanding of the mechanism is not necessary to practice the present invention. […] Finally, two additional orphan class II ORs, MOR203-1 and olfr62, were tested against a panel of 139 odorants. […] Olfr62 responded to coumarine and piperonal (see FIG. 11C). […] When parental 293T cells for these ORs were used in this luciferase assay, little or no response to the odorants was observed. The present invention is not limited to a particular mechanism. Indeed, an understanding of the mechanism is not necessary to practice the present invention.
An expression system has been established that permits rapid identification of ligands for ORs. This system was tested with twelve ORs. Four of the tested ORs (S6/S79, S18, S46, and S50) were expressed in single olfactory neurons responding to aliphatic odorants (see, e.g., Malnic, B., et al. (1999) Cell 96, 713-723; herein incorporated by reference in its entirety). The response profiles of OR-S50, but not that of OR-S18 agreed with the previous report (see, e.g., Malnic, B., et al. (1999) Cell 96, 713-723; herein incorporated by reference in its entirety). […] In experiments conducted during the course of the present invention, OR-S6/S79 responded to nonanedioic acid but not to heptanoic acid or octanoic acid. The present invention is not limited to a particular mechanism. […] When multiple single olfactory neurons that expressed the same OR were recorded against the same set of odorants using calcium imaging, their response profiles were similar but different (see, e.g., Bozza, T., et al. (2002) J Neurosci 22, 3033-3043; herein incorporated by reference in its entirety).
Dual-Glo system (Promega) for luciferase assay was used. […] Luminescence was measured using Wallac Victor 1420 (Perkin-Elmer). […]

B1: RTP1-A1: RTP1 variant from deleting portions of RTP1-A; murine SEQ ID NO: 46, human SEQ ID NO: 47 (protein, listed as Mus musculus)
chain: MCKSVTTGEWKKVFYEKMEEVKPADSWDFIIDPNLKHNVLAPGWKQYLELHASGRFHCSWCWHTWQSPHVVILFHMYLDKAQRAGSVRMRVFKQLCYECGTARLDESSMLEENIESLVDNLITSLREQCYGERGGHYRIHVASRQDNRRHRGEFCEACQEGIVHWKPSEKLLEEEATTYTFSRAPSPTKPQAETGSGCNFCSIPWCLFWATVLMLIIYLQFSFRTSV
olfr62
  cell-surface expression of olfr62: Increased cell-surface staining
S6
  cell-surface expression of S6: Increased cell-surface staining
OREG
  cell-surface expression of OREG: Increased cell-surface staining
OR-S6/S79
  S6 activity as indicated by luciferase expression: Increased enhancement
